# System: hippocampal proteins
# Assay: DIA quantification proteomics, hippocampus of Mdga2+/- vs WT mice
# Parameters: species or system mouse
# Details: S3 Table, downregulated DEPs; for log2FC: Mdga2+/- vs WT mouse hippocampus (HET-HIP-VS-WT-HIP), SE, pvalue and adj_pvalue in own columns c3-c5; for Class: regulation class of the protein, HET-HIP-VS-WT-HIP
# How it was run: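 Hippocampi from 1.5–2-month-old male Mdga2+/− mice and WT littermates; 100 μg protein trypsin-digested, peptides high-pH fractionated. DDA-built spectral library, DIA by nano-LC–MS/MS with Spectronaut and mProphet QC. DEPs called at fold change >1.1 and p <0.05.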
Molecule,log2FC,Class
"sp¦Q3TVI8¦PBIP1_MOUSE (protein, UniProt Q3TVI8 1-727, looked up) Pre-B-cell leukemia …: MASCPDSDNSWVLAGSENLPVETLGPEPRMDPESEGASQALRDSSKADGKELAGTLDGEEKLFQTESSQRETAVLTESAAKGTLGADGHGTEAPGDTVVQEDSQETPVATSLGPDTQDLESEIHPQNLPSSPRAVWKEHRCSSSDDDTDVDVEGLRRRRGREPSSSQPVVPVDVEDQAKGEGIGGELGISLNMCFLGALVLLGLGILLFSGTLLEPETGPMEEAELQVFPETGPETELVETLGNRQDEIEHLQASSVPPDSVPSLQSMGFLLDKLAKENQDIRLLQAQLQAQKEELQSLLHQPKGLEEENARLREALQQGKTSHQALESELQQLRARLQGLEANCVRGVDGVCLNWGGDPQDGKATKEQGHKGQEPDPSLLEQHKQLEAEAKALRQELQRQWQLLGSVHWDLQRGLRDAGRGAPAHPGLAELGHMLAQTLQDLENQGINTGRSPNDSEAWHQKKPHTQSPREWGGKEKWRGGQRDQKAEHWKPRKEESGQERQRSWRDEGREHTGRWREDRLRADESGSRKDSKRQDPKVHPRKDGNSHSVERQKHSWGKDNSPDALSSWEELLRRKYRPPQGCSGVADCARQEGLALFGVELAPVRQQELASVLREYLSRLPWAGQLTKQLPLSPAYFGEDGIFRHDRLRFRDFVDALEDSLEEVALKQTGDDDEVDDFEDFVFGHFFGDKALKKRSRKKEKHSWNPRVVGPREEHSRHPHHYHQG",-1.692,Down
"sp¦Q9D7X1¦KCTD4_MOUSE (protein, UniProt Q9D7X1 1-259, looked up) BTB/POZ domain-containing …: MERKIIRREKEREYEGRHNSVEDAEQGKNCKSTLMTLNVGGYLYITQKQTLTKYPDTFLEGIVNGKILCPFDADGHYFIDRDGLLFRHVLNFLRNGELLLPEGFRENQLLAQEAEFFQLKGLAEEVKSRWEKEQLTPRETTFLEITDNHDRSQGLRIFCNAPDFISKIKSRIVLVSKSRLDGFPEEFSVSSNIIQFKYFIKSENGTRLVLKEDNTFVCTLETLKFEAIMMALKCGFRLLTSLDCSKGSIVHSDALHFIK",-1.758,Down
"sp¦P50172¦DHI1_MOUSE (protein, UniProt P50172 1-292, looked up) 11-beta-hydroxysteroid …: MAVMKNYLLPILVLFLAYYYYSTNEEFRPEMLQGKKVIVTGASKGIGREMAYHLSKMGAHVVLTARSEEGLQKVVSRCLELGAASAHYIAGTMEDMTFAEQFIVKAGKLMGGLDMLILNHITQTSLSLFHDDIHSVRRVMEVNFLSYVVMSTAALPMLKQSNGSIAVISSLAGKMTQPMIAPYSASKFALDGFFSTIRTELYITKVNVSITLCVLGLIDTETAMKEISGIINAQASPKEECALEIIKGTALRKSEVYYDKSPLTPILLGNPGRKIMEFFSLRYYNKDMFVSN",-1.766,Down
"sp¦Q8BUB4¦WDFY2_MOUSE (protein, UniProt Q8BUB4 1-400, looked up) WD repeat and FYVE …: MAAEIQPQPLTRKPILLQRVEGSQEVVNMAVIVPKEEGVISVSEDRTVRVWLKRDSGQYWPSIYHAMPSPCSCMSFNPETRRLSIGLDNGTISEFILSEDYNKMTPVKNYQAHQSRVTMVLFVLELEWVLSTGQDKQFAWHCSESGQRLGGYRTSAVASGLQFDVETRHVFIGDHSGQVTILKLEQENCTLLTSFRGHTGGVTALCWDPVQRVLFSGSSDHSVIMWDIGGRKGTAIELQGHNDKVQALSYAQHTRQLISCGGDGGIVVWNMDVERQETPEWLDSDSCQKCDQPFFWNFKQMWDSKKIGLRQHHCRKCGKAVCGKCSSKRSSIPLMGFEFEVRVCDSCHEAITDEERAPTATFHDSKHNIVHVHFDATRGWLLTSGTDKVIKLWDMTPVVS",-1.823,Down
"sp¦P28076¦PSB9_MOUSE (protein, UniProt P28076 21-219, looked up) Proteasome subunit beta type-9: TTIMAVEFDGGVVVGSDSRVSAGTAVVNRVFDKLSPLHQRIFCALSGSAADAQAIADMAAYQLELHGLELEEPPLVLAAANVVKNISYKYREDLLAHLIVAGWDQREGGQVYGTMGGMLIRQPFTIGGSGSSYIYGYVDAAYKPGMTPEECRRFTTNAITLAMNRDGSSGGVIYLVTITAAGVDHRVILGDELPKFYDE",-1.875,Down
"sp¦Q5PR69¦CRAD_MOUSE (protein, UniProt Q5PR69 1-1291, looked up) Capping protein-inhibiting …: MGARAFSHDSIFIPDGGAESEQTVQAMSQDNILGKVKTLQRQLGKNIKFGQRPSNAIPMKKAGSTDASSEEDFVLTSPMEIVTQQDIVPSDTENKSSDTPSSSSPLNLPEAGSDMEEKVAPVKPSRPKRHLSSAGTIESVNLDAIPLAIARLDNSAARHKLAVKPKNQRVSRKHRWLAQDRQNEPGSFESQSSLDQNGQLGEDKHIWHGEEPEPLESHEEKRLHEEYWRELEAKCKRQKAEAAEKRRQEEQRRQALERRLWEESLRQELLEEEEEGEEEEEVKEEGEEGEEVGLQPRAGKVPPEEGHQSGPEEQRCTEQELGGADDPARLEAEERRREQEEAERQAEKLRQREAERQEEEQKQREAERQEEEARQCEAERQAEKLRQREAERQEEEARQREAERQAEKLRQREAERQEEELRQREEAERQEKLRQRDAESQEEELRQREAERQRAQEEDAKGMLQEEEEEAKRIEELKGKETPEPLVEEGPQSPEGESQPWLTDDADQRSPLQRDLEKPGEREREDLESAGQREIAEEPRGEGEPAEQSGDLDAHCGGVDGEGKETAQTDSPQPQERQMEGTPAPEENEATAADIDRKVEELRWQEVDERQTMPRPYTFQVSSGSRQILFPKVNLSPVTPAKDASLAPAAQEPPAPRGAASHALPSALSIPHTAILVTGAQLCGPAVNLSQIKDTACKSLLGLSEEKRPMDVPTVESRAGSGKSRPAPESPSNAAALAEWASIRSRILKNSEGDQRGDREPARAGDEPVPRARCDSRGNVRRTPPVNAKFSIMPAWQKFSDSGAETFRQSLDGESGRKKPGLAPSEETAPQPHAAAQQEVSQEPPDTTDGCKFAKDLPSFLVPGLPSPQKAASRTESTTTLDSETTSDVGNPDPAMPGGEEKASPFGIKLRRTNYSLRFHCDQQAEQKKKKRHSSTGDSVGGATPATGSVSGESEPEATFLKHGPSLPQERKPALSPRKDSAESHSSGHYVAVAQSGLPPASGQTPAPEQDRAVSKMPSMQKPALAPKPASQTPPSSPLSKLSRPHLVELLARRAGKLDSEPSETAKESSDNQPPSPSLPEELKGQKRDEKDVPEKKPASPPLPAGQQERPSLIPETGRKEKPVLQSRHSLDGSKVTEKVETAQPLWITLALQKQKGFREQQATREERKQAREAKQAEKLSKETVSVSLQPGSSRASKTAPVHKPAAPSEEKKPETAVSRLQRREQLKKSNTLPTSVTVEISDSAPSAALVKDVTKRFSTPDAAPVSTEPAWLALAKRKAKAWSDCPQIIK",-1.882,Down
"sp¦Q9EPQ7¦STAR5_MOUSE (protein, UniProt Q9EPQ7 1-213, looked up) StAR-related lipid transfer …: MDPSWATQESEAVAEKVLRYRRDASGWKKCREGNGVSISWRPSEEFPGNLYRGEGILCGTPEEVWDCIKPVASGLREKWDDNVSSFEIVQSITDMLCVSRTSTPSAAMKLISPRDFVDLVLVKKYEDGTISSNATHVEHPLCPPKPGFVRGFNHPCGCFCEPLPGDPNKTNLVTFFQTDLSGYLPQSVVDSFFPRSMAEFYPNLQKAVRKFHH",-1.896,Down
"sp¦O54983¦CRYM_MOUSE (protein, UniProt O54983 1-313, looked up) Ketimine reductase …: MKRAPAFLSAEEVQDHLRSSSLLIPPLEAALANFSKGPDGGVMQPVRTVVPVAKHRGFLGVMPAYSAAEDALTTKLVTFYEGHSNTAVPSHQASVLLFDPSNGSLLAVMDGNVITAKRTAAVSAIATKLLKPPGSDVLCILGAGVQAYSHYEIFTEQFSFKEVRMWNRTRENAEKFASTVQGDVRVCSSVQEAVTGADVIITVTMATEPILFGEWVKPGAHINAVGASRPDWRELDDELMRQAVLYVDSREAALKESGDVLLSGADIFAELGEVISGAKPAHCEKTTVFKSLGMAVEDLVAAKLVYDSWSSGK",-1.898,Down
"sp¦Q8K4I3¦ARHG6_MOUSE (protein, UniProt Q8K4I3 1-771, looked up) Rho guanine nucleotide …: MNPEERLVTWLISLGVLESPKKTVCDPEEFLKSSLKNGVVLCKLINRLLPGSVEKYCLEPQTEADCIDNINDFLKGCATLQVEVFEPDDLYSGANFSKVLNTLLAVNKATEDQLSERPCGRSSSLSAATSSQTNPQVAVPSTAPEQHSEEKAEMTENGSHQLIVKARFNFKQTNEDELSVCKGDIIYVTRVEEGGWWEGTLNGRTGWFPSNYVREIKPSERPLSPKAIKGFDTAPLTKNYYTVVLQNILDTEKEYAKELQSLLVTYLRPLQSNNNLSTVEFTCLLGNFEEVCTFQQTLCQALEECSKFPENQHKVGGCLLNLMPHFKSMYLAYCANHPSAVNVLTQHSDDLERFMENQGASSPGILILTTSLSKPFMRLEKYVTLLQELERHMEDTHPDHQDILKAIIAFKTLMGQCQDLRKRKQLELQILSEPIQAWEGDDIKTLGNVIFMSQVVMQHGACEEKEERYFLLFSSVLIMLSASPRMSGFMYQGKIPIAGMVVNRLDEIEGSDCMFEITGSTVERIVVHCNNNQDFQEWMEQLNRLTKGPTSCGSLSKTSSSSCSTHSSFSSTGQPRGPLEPPQIIKPWSLSCLRPAPPLRPSAALGYKERMSYILKESSKSPKTMKKFLHKRKTERKASEEEYVIRKSTAALEEDAQILKVIEAYCTSASFQQGTRKDSVPQVLLPEEEKLIIEETRSNGQTIIEEKSLVDTVYALKDEVKELKQENKKMKQCLEEELKSRKDLEKLVRKLLKQTDECIRSESSSKTSILQ",-1.975,Down
"sp¦Q9ERI2¦RB27A_MOUSE (protein, UniProt Q9ERI2 2-221, looked up) Ras-related protein Rab-27A: SDGDYDYLIKFLALGDSGVGKTSVLYQYTDGKFNSKFITTVGIDFREKRVVYRANGPDGAVGRGQRIHLQLWDTAGQERFRSLTTAFFRDAMGFLLLFDLTNEQSFLNVRNWISQLQMHAYCENPDIVLCGNKSDLEDQRAVKEEEARELAEKYGIPYFETSAANGTNISHAIEMLLDLIMKRMERCVDKSWIPEGVVRSNGHTSADQLSEEKEKGLCGC",-2.259,Down
